Read-outs that look alike come from different tables or passages of the source.

The target of series [1] is T1, TGFβ2 (transforming growth factor beta 2) (Homo sapiens, UniProt P61812 SEQ:1-112).
T1 sequence: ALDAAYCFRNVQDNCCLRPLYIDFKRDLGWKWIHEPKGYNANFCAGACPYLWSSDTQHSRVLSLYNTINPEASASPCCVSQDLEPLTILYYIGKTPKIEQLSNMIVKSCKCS
Kind of series: filter; Table 18 footnote states ~1 nM; Ki ~10 nM. As to conditions: chain copies: 2 (inferred, homodimer).

Series [2] has as its target T1, TGFβ2 (transforming growth factor beta …). The series can be described thus: filter. Particulars: chain copies: 2 (inferred, homodimer).
Series [3] shares this target. The series can be described thus: cell_activity; mink lung epithelial cell proliferation. As to conditions: chain copies: 2 (inferred, homodimer). As to the method: (§1) The bioactivity of TGFβ2 nucleic acid ligands was measured with mink lung epithelial cells. Proliferation of these cells is inhibited by TGFβ2. Human TGFβ2 was titrated on the cells and ³H-thymidine incorporation was measured. […] This inhibitory amount of TGFβ2 along with varying amounts of nucleic acid ligand (typically 0.3 or 1 nM to 1 or 3 μM, in 3 fold increments) was used. Typically, cells were plated at 10E5/ml in 96-well plates in 100 μl MEM, 10 mM HEPES pH 7.4, 0.2% FBS. […] After incubation, the cells were lysed with 1% Triton X-100 and harvested onto GF/B filter plates in a Packard 96 well plate harvester, and ³H-thymidine incorporation in cellular DNA was quantitated by scintillation counting in MicroScint (Packard, Mariden, Conn.) in a Packard Top-Count. Data were plotted as % of maximum ³H-thymidine incorporation vs RNA concentration, and were fitted by the software Kaleidagraph (Synergy Software, Reading, Pa.) to the equation m3*(m0+m1+(m2)−((m0+m1+(m2))*(m0+m1+(m2))−4*(m0)*( m2)))\hat{ }0.5)/(2*(m2)); where m0 is the concentration of competitor RNA; m1 is the IC50, m2 is the concentration of TGFβ2, and m3 is the plateau value of the fraction of maximum ³H-thymidine incorporation.

The target is the same in series [4]. The series can be described thus: filter; 37C; Ki 10 nM in cell assay. Particulars: chain copies: 2 (inferred, homodimer). How it is done: (§2) The binding activity of individual ligands was determined by measuring the equilibrium dissociation constants using nitrocellulose partitioning of labeled RNA as a function of protein concentration. RNA was body-labeled or guanylated and then 5′-end labeled with γ-³²P ATP and T4 polynucleotide kinase. Binding reactions were set at various protein concentrations (typically varied in either 3-fold or 10-fold increments) while maintaining the labeled RNA concentration constant at less than 0.1 nM, and incubated at 37° C. for 10 minutes. Protein-RNA complexes were partitioned away from uncomplexed RNA, by filtering the binding reactions through a nitrocellulose/cellulose acetated mixed matrix (0.45 μm pore size filter disks, type HA; Millipore, Co., Bedford, Mass.). For filtration, the filters were placed onto a vacuum manifold (12-well, Millipore, or 96-well BRL) and wetted by aspirating 1-5 ml of binding buffer. The binding reactions were aspirated through the filters, washed with 1-5 ml of binding buffer and counted in a scintillation counter (Beckmann).

The target is the same in series [5]. Kind of series: cell_activity; mink lung epithelial cell proliferation. As to conditions: chain copies: 2 (homodimer, stated). How it is done:
as §1, with “incorporation. […]” for “incorporation.”

Series [6] addresses T2, TGFβ1 (transforming growth factor beta 1) (Homo sapiens, UniProt P01137 SEQ:1-112).
The target in series [7] is T2, TGFβ1 (transforming growth factor beta …). The series can be described thus: bioactivity +++. As to conditions: chain copies: 2 (inferred, homodimer).
The target of series [8] is T1, TGFβ2 (transforming growth factor beta …). Kind of series: filter; 37C; Ki 30 nM in cell assay. As to conditions: chain copies: 2 (inferred, homodimer). As to the method:
as §2

Series [9] shares this target. Kind of series: filter; 37C; Ki 230 nM in cell assay. Particulars: chain copies: 2 (inferred, homodimer). How it is done:
as §2

The target is the same in series [10]. The series can be described thus: cell_activity; mink lung epithelial cell proliferation; text p154 about 200 nM. As to conditions: chain copies: 2 (homodimer, stated). How it is done: as §1, with “incorporation. […]” for “incorporation.”

T2 sequence (P01137 279-390): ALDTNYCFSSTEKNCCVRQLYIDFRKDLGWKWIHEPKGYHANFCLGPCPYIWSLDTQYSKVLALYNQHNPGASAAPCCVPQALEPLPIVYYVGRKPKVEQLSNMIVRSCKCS

B1: NX22284 (ssRNA)
RNA: GGAGGUUAUUACAGAGUCUGUAUAGCUGUACUCC
modifications: 2'-F C and U; 3'-3' dT cap
The Kd is the constant that tells how readily two partners part at equilibrium. Read a low Kd as tighter binding. In turn, B1 gave a Kd in series [1] of roughly 2 nM.

B2: NX22283 (ssRNA)
RNA: GGAGGUUAUUACAGAGUCUGUAUAGCUGUACUCCCC
modifications: 2'-F C and U; 3'-3' dT cap
The Ki is a measure of affinity in units of concentration, obtained from inhibition or displacement. As to B2, in [2], the binding signal is 0.6 x Kd of NX22284. Besides, the Ki in series [3] turned out to be 10 nM.

B3: 21a-21 (ssRNA)
RNA: GGGAGGACGAUGCGGUUCAGGAGGUUAUUACAGAGUCUGUAUAGCUGUACUCCCCAGACGACUCGCCCGA
modifications: 2'-F C and U
In turn, B3 registered a Kd in series [4] of roughly 1 nM.

B4: 21a-21 (ssRNA)
RNA: GGGAGGACGAUGCGGUUCAGGAGGUUAUUACAGAGUCUGUAUAGCUGUACUCCCCAGACGACUCGCCCGA
modifications: 2'-F C and U; 2'-OH A and G
Consider B4, for which the Ki in series [5] is 10 nM.

B5: ChD70-m13 (ssRNA)
RNA: GGGUGCCUUUUGCCUAGGUUGUGAUUUGUAACCUUCUGCCCA
modifications: 2'-OMe purines at 21, 23-24, 28 and 30
On to B5, for which the binding result in [6] is on record as “binds”.

B6: ChD70-m17 (ssRNA)
RNA: GGGUGCCUUUUGCCUAGGUUGUGAUUUGUAACCUUCUGCCCA
modifications: 2'-OMe purines at 1-3, 16-18, 21, 23-24, 28, 30-31 and 42; 3'-3' U
Regarding B6, the binding result in series [7] was “binds”.

B7: 21a-4 (ssRNA)
RNA: GGGAGGACGAUGCGGCGUUGUUUAGUCGUAUGUAUAUACUAAGUCCGCUUGUCCCCAGACGACUCGCCCGA
modifications: 2'-F C and U
For B7, the Kd in series [8] was roughly 3 nM.

B8: 21a-4 (ssRNA)
RNA: GGGAGGACGAUGCGGCGUUGUUUAGUCGUAUGUAUAUACUAAGUCCGCUUGUCCCCAGACGACUCGCCCGA
modifications: 2'-F C and U; 2'-OH A and G
As to B8, in series [5], the Ki came to 30 nM.

B9: 14i-1 (ssRNA)
RNA: GGGAGGACGAUGCGGAAGUAACGUUGUAGUAAAAUUCGUUCUCUCGGCAUUUGGCCAGACGACUCGCCCGA
modifications: 2'-F C and U
The molecule B9 had a Kd in [9] of roughly 10 nM.

B10: 14i-1 (ssRNA)
RNA: GGGAGGACGAUGCGGAAGUAACGUUGUAGUAAAAUUCGUUCUCUCGGCAUUUGGCCAGACGACUCGCCCGA
modifications: 2'-F C and U; 2'-OH A and G
On to B10, for which the Ki in [10] was found to be 230 nM.
